Substitutions are numbered along the chain they refer to.
Tests used:
[1] = target: T1, Recombinant InlC.K173A with a C-terminal 6xHis tag (Listeria monocytogenes, UniProt P71451 35-297, K173A); assay: SPR
T1 sequence (looked up): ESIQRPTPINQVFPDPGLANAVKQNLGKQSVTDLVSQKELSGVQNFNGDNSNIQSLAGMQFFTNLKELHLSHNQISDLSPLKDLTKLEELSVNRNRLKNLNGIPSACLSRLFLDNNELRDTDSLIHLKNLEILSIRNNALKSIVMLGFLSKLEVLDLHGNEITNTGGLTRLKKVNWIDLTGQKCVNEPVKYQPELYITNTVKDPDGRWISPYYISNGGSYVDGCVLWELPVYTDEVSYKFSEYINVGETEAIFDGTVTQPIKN

[2] = target: T2, Recombinant wild-type InlC with a C-terminal 6xHis tag (Listeria monocytogenes, UniProt P71451 35-297); assay: SPR
T2 sequence (looked up): T1 sequence (looked up) with A139K

B1: SH36 protein of Tuba linked to the biosensor chip (domain or fragment, human, UniProt Q6XZF7 1513-1577, looked up)
chain: EGNQVYFAVYTFKARNPNELSVSANQKLKILEFKDVTGNTEWWLAEVNGKKGYVPSNYIRKTEYT
**Q.** Which Kd [1] does the source give for B1 here?
**A.** 58 ± 12.3 µM

**Q.** What about the Kd [2] of the same binder?
**A.** 9 ± 3.5 µM

Source: publication PMC2755649 (Nature cell biology, 2009)
